Results on 167 variants are retold here after the RNAGym collection of RNA variant scans (doi:10.7554/elife.80360).

The labels stand for the following.
B1: Twister Ribozyme (parent)
chain: AACACUGCCAAUGCCGGUCCCAAGCCCGGAUAAAAGUGGAGGGGGCGG

The data set covers variants of B1. Description: self-cleavage, relative activity (ratio to wild type); higher = more cleavage; co-transcriptional.
As for U6G G16A, the self-cleavage worked out at 0.226.

For C8A G43A, the self-cleavage amounted to 0.177.

Consider C8A G43U, for which the self-cleavage was 0.119.

As to G7C G24A, the self-cleavage was determined as 0.0629.

Consider G7C A32C, for which the self-cleavage came to 0.0784.

Regarding G7C A32G, the self-cleavage came out at 0.105.

With C8A G36C, the self-cleavage turned out to be 0.145.

As for C8A G36A, the self-cleavage is 0.101.

Regarding C8A G47A, the self-cleavage was found to be 0.26.

Take C8A G47C: the self-cleavage turned out to be 0.169.

Take C8A G47U: the self-cleavage was 0.156.

In the case of C8A G41A, the self-cleavage was found to be 0.175.

For G7C C26A, the self-cleavage amounted to 0.0601.

As for G7C C26G, the self-cleavage was found to be 0.0717.

Consider C8G G13U, for which the self-cleavage came to 0.194.

Turning to G7U G45U, the self-cleavage came out at 0.087.

Regarding G7U G45A, the self-cleavage worked out at 0.0748.

For G7A C46A, the self-cleavage amounted to 0.354.

Regarding C8A A10C, the self-cleavage was found to be 0.594.

As for C8A A10G, the self-cleavage was found to be 0.734.

For C8G G16U, the self-cleavage came to 0.108.

With C8A U37G, the self-cleavage amounted to 0.3.

As for C8A U37C, the self-cleavage is 0.144.

Regarding G7C C27G, the self-cleavage is 0.073.

Take G7C C27A: the self-cleavage was found to be 0.0706.

Regarding G7C C27U, the self-cleavage is 0.0315.

For C8G C26U, the self-cleavage was 0.0555.

As for C8G C26A, the self-cleavage was found to be 0.0716.

C8A C25U: the self-cleavage turned out to be 0.125.

In the case of C8A C25G, the self-cleavage worked out at 0.0894.

With G7U A32G, the self-cleavage was 0.0756.

With G7U A32U, the self-cleavage came out at 0.101.

C8A A34C: the self-cleavage is 0.189.

With C8G G48C, the self-cleavage is 0.272.

With C8G G48U, the self-cleavage is 0.263.

As to G7U G38U, the self-cleavage is 0.103.

With G7U G38C, the self-cleavage was 0.0818.

In the case of G7A A10C, the self-cleavage stood at 0.459.

Consider G7A A10G, for which the self-cleavage was found to be 0.982.

For the variant G7A A10U, the self-cleavage came to 0.505.

G7C C19G: the self-cleavage was 0.0745.

In the case of C8G C20G, the self-cleavage worked out at 0.0475.

In the case of C8G C20A, the self-cleavage worked out at 0.11.

For G7U C27G, the self-cleavage worked out at 0.0829.

Consider C8A C46G, for which the self-cleavage was determined as 0.353.

Regarding C8A C46A, the self-cleavage was determined as 0.167.

Turning to C8G U18C, the self-cleavage was determined as 0.0751.

Turning to C8G U18G, the self-cleavage came to 0.0605.

Regarding C8G G28A, the self-cleavage is 0.0928.

For C8G U12C, the self-cleavage was 0.435.

On to C8G U12A, for which the self-cleavage amounted to 0.609.

Take C8G A10U: the self-cleavage was 0.429.

Turning to C8G G44C, the self-cleavage was found to be 0.177.

Regarding C8G G39C, the self-cleavage worked out at 0.135.

With C8G G39A, the self-cleavage amounted to 0.0973.

In the case of G7U G48A, the self-cleavage is 0.078.

For C8G C21G, the self-cleavage was 0.0605.

In the case of U6G G42C, the self-cleavage turned out to be 0.156.

As for U6G G42U, the self-cleavage is 0.0829.

G7U U12A: the self-cleavage came to 0.0775.

Take G7U U12C: the self-cleavage amounted to 0.0693.

Regarding G7U U12G, the self-cleavage is 0.208.

As for G7A C20U, the self-cleavage was determined as 0.116.

As to G7A G43A, the self-cleavage was 0.176.

G7A G43C: the self-cleavage turned out to be 0.123.

Turning to C8A G13U, the self-cleavage worked out at 0.261.

As for C8A G13A, the self-cleavage stood at 0.359.

Take U6G G39U: the self-cleavage amounted to 0.105.

Take U6G G39C: the self-cleavage was 0.124.

For the variant G7C G42C, the self-cleavage came out at 0.0454.

Take G7C G42A: the self-cleavage amounted to 0.062.

As to C8G A11G, the self-cleavage stood at 0.392.

Regarding G7C U18A, the self-cleavage was 0.0787.

As for U6G G47U, the self-cleavage came to 0.151.

On to U6G U31A, for which the self-cleavage stood at 0.169.

U6G U31C: the self-cleavage stood at 0.365.

Consider G7A C19A, for which the self-cleavage was 0.0667.

Turning to G7A G42U, the self-cleavage amounted to 0.136.

Regarding G7A A33C, the self-cleavage stood at 0.211.

In the case of G7A A33G, the self-cleavage stood at 0.243.

For the variant G7C G43C, the self-cleavage came out at 0.0825.

In the case of G7U A10C, the self-cleavage amounted to 0.117.

As to C8G G47C, the self-cleavage was determined as 0.186.

Regarding C8G G47U, the self-cleavage amounted to 0.142.

C8G G47A: the self-cleavage is 0.208.

Regarding G7A C9U, the self-cleavage is 0.0809.

Consider U6G C26G, for which the self-cleavage was found to be 0.0499.

Consider C8A A35G, for which the self-cleavage was determined as 0.226.

As for C8A A35U, the self-cleavage worked out at 0.477.

For C8A A35C, the self-cleavage stood at 0.405.

Take C8G C19G: the self-cleavage is 0.0626.

Take C8G C19A: the self-cleavage amounted to 0.0465.

With G7A U37A, the self-cleavage worked out at 0.144.

As for G7A U37C, the self-cleavage amounted to 0.111.

Consider G7A U37G, for which the self-cleavage stood at 0.162.

For C8G A22U, the self-cleavage was determined as 0.157.

As to C8G A22G, the self-cleavage is 0.0585.

Turning to G7U G47U, the self-cleavage turned out to be 0.0775.

Consider G7U G47C, for which the self-cleavage was found to be 0.0954.

On to G7U U37A, for which the self-cleavage was determined as 0.0497.

C8G C14G: the self-cleavage is 0.0524.

Turning to C8G C14A, the self-cleavage came to 0.495.

As for G7C G28A, the self-cleavage came out at 0.0408.

On to G7C G28U, for which the self-cleavage came out at 0.093.

For the variant G7U C46A, the self-cleavage turned out to be 0.0526.

For C8G C9G, the self-cleavage was 0.107.

On to C8G C9U, for which the self-cleavage was 0.0635.

For G7U C8G, the self-cleavage was determined as 0.114.

For G7U G28A, the self-cleavage was found to be 0.0571.

With C8G A40U, the self-cleavage stood at 0.0905.

For the variant C8G A40C, the self-cleavage amounted to 0.157.

As for G7A A22U, the self-cleavage was determined as 0.103.

For the variant G7A A22G, the self-cleavage is 0.0675.

Take G7A A22C: the self-cleavage was found to be 0.519.

For the variant G7U C9U, the self-cleavage was 0.0542.

Consider G7U G16U, for which the self-cleavage was determined as 0.0559.

For G7U G16A, the self-cleavage came to 0.0674.

For U6G C25A, the self-cleavage amounted to 0.058.

As to G7C G13C, the self-cleavage turned out to be 0.0439.

As to G7C G13A, the self-cleavage was 0.0687.

Regarding G7C G29C, the self-cleavage worked out at 0.0533.

As for G7C G29A, the self-cleavage is 0.0857.

As to G7U G13A, the self-cleavage is 0.0636.

For G7U G13C, the self-cleavage was 0.0504.

As for C8G G38C, the self-cleavage stood at 0.145.

Consider C8G G38U, for which the self-cleavage came to 0.158.

In the case of U6G U12G, the self-cleavage was 0.343.

Turning to U6G U12A, the self-cleavage is 0.769.

For U6G U12C, the self-cleavage came out at 0.35.

As to G7A G29U, the self-cleavage turned out to be 0.339.

G7A G29C: the self-cleavage is 0.12.

With C8A A32G, the self-cleavage came out at 0.331.

As for C8A A32C, the self-cleavage came to 0.42.

Regarding G7C A22C, the self-cleavage is 0.0571.

As to C8A C26U, the self-cleavage amounted to 0.098.

As to G7C G39C, the self-cleavage stood at 0.071.

Take C8A U18C: the self-cleavage worked out at 0.0479.

G7C G41U: the self-cleavage worked out at 0.0511.

In the case of G7C G41C, the self-cleavage amounted to 0.0623.

On to C8A A22U, for which the self-cleavage was 0.127.

On to C8G G24A, for which the self-cleavage is 0.203.

For the variant C8G G24C, the self-cleavage turned out to be 0.993.

For the variant G7C G47C, the self-cleavage worked out at 0.122.

For the variant C8G C25G, the self-cleavage was found to be 0.0929.

With C8G C25A, the self-cleavage was 0.0886.

Turning to C8A G16U, the self-cleavage was 0.144.

Take G7C G45U: the self-cleavage stood at 0.0816.

As for C8G C46U, the self-cleavage came out at 0.424.

Turning to G7U G42U, the self-cleavage is 0.0886.

For the variant U6G G48C, the self-cleavage was 0.358.

For U6G G48A, the self-cleavage turned out to be 0.24.

In the case of G7U A11U, the self-cleavage came out at 0.0842.

G7U A11C: the self-cleavage stood at 0.0886.

U6G G36U: the self-cleavage came to 0.0341.

Turning to U6G G36C, the self-cleavage was 0.0766.

In the case of G7U G39C, the self-cleavage was determined as 0.0429.

Turning to G7U G39A, the self-cleavage came to 0.0425.

Take G7C A35C: the self-cleavage was found to be 0.064.

Take G7C A35U: the self-cleavage stood at 0.0701.

As for C8A C19A, the self-cleavage turned out to be 0.0947.

In the case of C8A C19U, the self-cleavage is 0.107.

Take C8G C27G: the self-cleavage was 0.0686.

Regarding C8A U12A, the self-cleavage stood at 0.475.

In the case of C8A U31G, the self-cleavage was determined as 0.57.

Turning to G7U A22U, the self-cleavage was determined as 0.0446.

Consider G7U A22G, for which the self-cleavage is 0.0616.

Regarding G7U A22C, the self-cleavage was 0.11.
